# Laboratory results: article PMC11330476
# B1: PneKC, wild type, N-terminally His-tagged, expressed without PneA (apo PneKC) (enzyme)
# chain: MDYNFNLEHPFFFTNNDYSTDTSIKYQASLPFNWHEVMNNDEWVYQYPIGKFVERQGWKIHISSEYNSSHELLQDVAKICHEMRIPFKHLSTEDKFIMRNGKLVSRGFSGKFITCYPNQNELESVLQRLESALKQYNGPYILSDKRWDEAPIYLRYGVFRPSRDDEKKVAIDELIVGDEVVKDERLPVFKIPKGIVPPDFLNKWLDKKDKKQGDFPFIIDNAIRFSNSGGIYNARLKEDGKKIILKEARPYTGLGFDGTYSSEKLASECKALKILNEWSEAPKIYWHGKIWEHTFLGIEHMKGVPLNRWVTNNFPLYEVVDKTKDYLLRVSKIVEKLIDLTNKFHSENVYHQDLHLGNILVKDEDEISIIDWEQAVFSNDEKVVHKVAAPGFRAWRETLPSEIDWYGIRQIAHYLYMPLVTTSDLTYNYVSQTRIEGKKLFESLGYTREHIDYVESLLSYLDSKCPQIENISRKKVLKPMHEIRTIESEQDIQDFIIKLLRGFTLTYGQWRKEFQSRFFPVHYYGLNFNQGIAFSDLAILWSYQQLAKKVKNFKFDDYYEIRTQVINEAVNNFKKSSLSGLFDGKIGTIWLIYEFGEIDRAVELFTTHFIEIFENSQNKNLYSGQAGILLVGLYFLSKGEIDNKLGEEILIRLREYTLNYIENPETFCKVGASDVQSNDPYENFGGLLYGHAGVAWLFGEAYKLTGESIYKNGLELAVDKELVAYKVDSNNSLQYSQGHRLLPYLATGSAGLLLLINRNKEILSSKYLKYLTSLERATDVVFCVLPGLFNGFCGLEVANNIYSDIDDNFSGQKKLIEQLYRYLCVIEEGFVIAGDNGLKITTDIASGFAGVAIGLVSIMDNKLTILPQI
# modifications: not checked
# B2: PneKC, wild type, N-terminal His7 tag, co-expressed with PneA from pQLinkN-PneKC-PneA (enzyme)
# chain: B1 chain
# modifications: not checked
# Assays:
# [1] = target: PneKC without His tag, co-expressed with N-terminally His-tagged PneA (Streptococcus pneumoniae); test: negative-stain EM
# [2] = target: T1, PneKC, wild type, N-terminally His-tagged, expressed without PneA (apo PneKC) (Streptococcus pneumoniae); test: negative-stain EM
# [3] = target: T1, PneKC, wild type, N-terminally …; test: SEC
# [4] = target: PneKC, wild type, N-terminal His7 tag, co-expressed with PneA from pQLinkN-PneKC-PneA (Streptococcus pneumoniae); test: SEC
molecule,measurement,setting,value
"PneKC without His tag, co-expressed with N-terminally His-tagged PneA (enzyme)",stoichiometry N,[1],2
B1,stoichiometry N,[2],2
same,stoichiometry N,[3],2
B2,stoichiometry N,[4],2
